Here are results for 5 substances from patent US20190367631A1.

The target in test [1] is endogenously expressed human MSR1 on PMA-treated THP-1 cells (human) (UniProt P21757). Kind of test: cell-based or functional assay.
Test [2] has the same target. Kind of test: confocal imaging, differentiated THP-1 cells, Alexa 488 secondary.
Test [3] has as its target full length human MSR1 with a C-terminal Myc tag, on HEK293.Myc.hMSR1 cells (human) (UniProt P21757). Kind of test: ECL cell binding, HEK293.Myc.hMSR1 cells, 11 nM.
The target of test [4] is endogenously expressed human MSR1 on PMA-treated THP-1 cells (human) (UniProt P21757). Kind of test: ECL cell binding, PMA-treated THP-1 cells, 11 nM.
Test [5] deals with human MSR1 extracellular domain expressed with a N-terminal nonahistidine tag (human) (UniProt P21757). Kind of test: competition ELISA, plate-coated His9-hMSR1; 100 nM control antibody, competitor ligand Ac-LDL.
human MSR1 extracellular domain expressed with a N-terminal nonahistidine tag (human), sequence (P21757 other isoform, or with tags, fused parts or gaps): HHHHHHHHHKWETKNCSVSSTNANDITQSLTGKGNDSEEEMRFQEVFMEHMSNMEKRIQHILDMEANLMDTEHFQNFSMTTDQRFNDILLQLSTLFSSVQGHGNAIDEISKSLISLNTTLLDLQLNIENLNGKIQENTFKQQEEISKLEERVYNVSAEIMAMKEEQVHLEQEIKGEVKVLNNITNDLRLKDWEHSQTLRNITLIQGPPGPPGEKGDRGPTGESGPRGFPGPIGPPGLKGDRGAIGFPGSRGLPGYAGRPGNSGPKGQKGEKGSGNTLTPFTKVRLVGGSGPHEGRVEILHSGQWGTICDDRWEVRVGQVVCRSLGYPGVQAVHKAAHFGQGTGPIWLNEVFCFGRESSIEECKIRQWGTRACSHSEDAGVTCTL
For test [6] the target is unchanged. Kind of test: competition ELISA, plate-coated His9-hMSR1; 1 µM control antibody, competitor ligand 10 nM Ox-LDL.
Test [7] shares this target. As to the kind of experiment: competition ELISA, plate-coated His9-hMSR1; 300 nM control antibody, competitor ligand biot-AGE-BSA.

endogenously expressed human MSR1 on PMA-treated THP-1 cells (human), sequence (P21757 whole entry, the tested form may be a part): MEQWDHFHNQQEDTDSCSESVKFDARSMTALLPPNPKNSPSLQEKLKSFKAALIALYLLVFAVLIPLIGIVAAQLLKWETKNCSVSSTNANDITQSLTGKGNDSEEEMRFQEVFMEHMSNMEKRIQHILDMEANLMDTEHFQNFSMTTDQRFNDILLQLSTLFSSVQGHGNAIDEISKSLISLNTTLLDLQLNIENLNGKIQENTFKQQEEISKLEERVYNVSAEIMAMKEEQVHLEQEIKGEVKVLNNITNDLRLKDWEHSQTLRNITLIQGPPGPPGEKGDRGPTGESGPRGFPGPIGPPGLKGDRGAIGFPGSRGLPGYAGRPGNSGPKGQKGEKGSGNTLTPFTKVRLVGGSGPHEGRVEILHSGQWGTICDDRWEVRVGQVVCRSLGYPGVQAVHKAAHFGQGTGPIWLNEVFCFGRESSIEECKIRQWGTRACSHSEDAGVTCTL
full length human MSR1 with a C-terminal Myc tag, on HEK293.Myc.hMSR1 cells (human), sequence (P21757 whole entry): as the sequence (P21757 whole entry, the tested form may be a part) above

In test [1], Isotype control (antibody) returned a Total Internalized RFU of 1.7e+06 RFU. In test [2], this substance came in with a Total Binding at 4° C. (RFU) of 186000 RFU and a Total Binding at 37° C. (RFU) of 1.09e+06 RFU.
As for hIgG1 Isotype Control (antibody), the ratio of binding signal (RLU) to isotype control in test [3] and in test [4] was 1 fold each time.
On to hIgG1 isotype control (antibody), for which the figures for the % Blocking in test [5], in test [6] and in test [7] were -8%, 3% and 4%, respectively.
For mIgG1 isotype control (antibody) the same measures were -4%, 16% and 7%.
Take mIgG Isotype Control (antibody): the ratio of binding signal (RLU) to isotype control in test [3] and in test [4] was 1 fold in each case.
